Measured values: US12502562B2, “Human iPSC-derived brain organoids and uses thereof” (CITY OF HOPE, priority 2020, dated 2025)

Assays:
[1] = test system: hiPSC-derived brain organoids; assay: MEA recording of hiPSC-derived brain organoids with neuronal blockers; format: cell-based, human; conditions: uninfected brain organoids, blocker 10 μM applied immediately before recording
Procedure: (§1) Microelectrode Arrays (MEA). Brain organoids at day 45 of differentiation were partially dissociated and seeded onto 12-well transparent MEA plates at three brain organoids per well. Brain organoids were cultured in BrainPhys medium, including 1×B27, 1×N2, 20 ng/ml GDNF, 20 ng/ml BDNF, 500 μg/ml Dibutyryl-cAMP, 1× Glutamax, and 1× NEAA. MEA recordings were performed at 37° C. in a Maestro MEA system with AxIS software using a bandwidth with a filter for 10 Hz to 2.5 kHz cutoff frequencies. Spike detection was performed using an adaptive threshold set to 5.5 times of the standard deviation of the estimated noise on each electrode. For recordings, following a 5-minute resting time in the Maestro instrument, each plate was recorded for 10 minutes to calculate the spike rate per well. When a recording of 5 spikes over the length of 1 minute (5 spikes per minute) was obtained, the electrode was considered active. Individual electrode bursts were identified using an adaptive Poisson surprise algorithm, while network bursts were identified for each well using a non-adaptive algorithm requiring a minimum of 10 spikes with a maximum inter-spike interval of 100 ms. Multielectrode data analysis was performed using the Axion Biosystems NeuralMetrics Tool. Synchrony index was calculated by NeuralMetric Tool with synchrony window set as 20 ms. […]

[2] = test system: HCMV TB40/E; assay: Receptor-specific siRNA treatment of brain organoids followed by TB40/E infection; format: cell-based, Human cytomegalovirus; conditions: for GFP fluorescence of siRNA-treated infected brain organoids / growth kinetics of siRNA-treated infected brain organoids: siRNA for 4 days, then GFP-labeled TB40/E, up to 20 days post infection, compared to control siRNA; for susceptibility of brain organoids to TB40/E: siRNA-mediated knockdown, summary statement
Procedure: (§2) HCMV infection of brain organoids. Brain organoids at day 45 of differentiation were seeded in 24-well plates and exposed to 5×10^5 pfu/ml of HCMV virus for 24 hours. Following infection, 1 ml medium was replaced, and each organoid was placed in a single well for the duration of the experiment. At different time points post infection, each organoid was evaluated for GFP fluorescence intensity and organoid size in diameter using the same microscopy setting during each experiment.
RNA interference. Oligonucleotides for siRNA-mediated RNA interference were synthesized by […]. For RNA interference in brain organoids, four brain organoids with similar size were seeded in ultralow 24-well plates (one organoid per well) and transfected with siRNA using siLentFect. After 96 hours incubation, each organoid was infected with TB40/E at 5×10^5 pfu/ml. Medium was changed the following day. Brain organoids were cultured for 20 days on shaker with continuous medium change every 3-4 days.

[3] = test system: HCMV TB40/E; assay: HCMV TB40/E infection of hiPSC-derived brain organoids in the presence of NAbs (GFP fluorescence intensity, organoid size); format: cell-based, Human cytomegalovirus; conditions: for GFP fluorescence intensity of infected brain organoids / brain organoid growth kinetics (relative organoid size): GFP-labeled TB40/E, organoids at day 45 of differentiation, NAb 3.2-2000 ng/ml, up to 30 days post infection; for GFP fluorescence intensity of infected brain organoids / brain organoid growth kinetics (relative organoid size) / brain organoid size: compared to IgG control; for brain organoid size: TB40/E, 80-2000 ng/ml antibody; for prevention of HCMV infection of human brain organoids: summary statement
Procedure: as §2
(§3) Brain organoid treatment with NAbs. 1B2 and 62-11 NAbs at final concentrations ranging from 3.2 ng/ml to 4000 ng/ml were incubated with 5×10^5 pfu/ml of HCMV for 1 hour at 37° C. and then transferred to brain organoid-containing wells. Normal mouse IgG was used as a control at the concentration of 2000 ng/ml. For proliferation assay, brain organoids were incubated with 10 μM BrdU for 2 hours and fixed in 4% paraformaldehyde (PFA) for 1 hour, followed by immunostaining.
(§4) Images were obtained with a Carl Zeiss LSM700 confocal microscope or Nikon Eclipse TE-2000-S microscope. Cortical layer thicknesses, brain organoid size and GFP fluorescence intensity of brain organoids were measured by Image J. For measuring the layer thickness, small rectangles were drawn to ensure two opposite sides to align with both layer marker dashed lines.

[4] = test system: HCMV strain TR; assay: HCMV TR infection of hiPSC-derived brain organoids in the presence of NAb; format: cell-based, Human cytomegalovirus; conditions: GFP-labeled TR, IMR90 iPSC-derived organoids at day 45 of differentiation
Procedure: as §2, §3, §4

[5] = test system: HCMV TB40/E; assay: Cortical layer structure of TB40/E-infected brain organoids by layer marker immunostaining; format: cell-based, Human cytomegalovirus; conditions: NAb 2000 ng/ml, compared to IgG control
Procedure: as §3
Immunostaining. Cells on coverslip were fixed with 4% PFA in PBS for 15 minutes at room temperature. Brain organoids were fixed with 4% PFA for 1 hour and submerged in 30% sucrose overnight. The samples were embedded in OCT and sectioned at a thickness of 14 or 20 μm using Leica CM3050S. Cells or brain organoid sections were permeabilized and blocked with blocking solution (1×PBS containing 0.1% Triton X-100 and 5% normal donkey serum) for 1 hour. […]
as §4

[6] = test system: HCMV TB40/E; assay: MEA recording of neural network activity in TB40/E-infected brain organoids; format: cell-based, Human cytomegalovirus; conditions: 4000 ng/ml NAb, MEA recording 2 weeks post infection
Procedure: as §1

[7] = test system: HCMV infection of fibroblasts; conditions: cited from earlier work
[8] = test system: HCMV infection of epithelial cells; conditions: cited from earlier work

Molecule: N#Cc1cc2nc([O-])c([O-])nc2cc1[N+](=O)[O-].[Na+].[Na+] [CNQX, CNQX disodium salt]
- spontaneous, synchronized burst and spikes of the neuronal network (MEA) [1]: could be quenched

Molecule: ITGA3-specific siRNA: siRNA specific for integrin α3, sense SEQ ID NO: 5, antisense SEQ ID NO: 6 (sense GCUACAUGAUUCAGCGCAA; antisense UUGCGCUGAAUCAUGUAGCUG; listed as RNA, chemistry not given here)
- GFP fluorescence of siRNA-treated infected brain organoids [2]: similar
- growth kinetics of siRNA-treated infected brain organoids [2]: similar

Molecule: EGFR-specific siRNA: siRNA specific for EGFR, sense SEQ ID NO: 1, antisense SEQ ID NO: 2 (sense GACGGCGUCCGCAAGUGUA; antisense UACACUUGCGGACGCCGUCUU; listed as RNA, chemistry not given here)
- GFP fluorescence of siRNA-treated infected brain organoids [2]: no or very low GFP fluorescence
- growth kinetics of siRNA-treated infected brain organoids [2]: substantially higher growth kinetics
- susceptibility of brain organoids to TB40/E [2]: completely abrogated

Molecule: PDGFRα-specific siRNA: siRNA specific for PDGFRα, sense SEQ ID NO: 3, antisense SEQ ID NO: 4 (sense CCACCUUCAUCAAGAGAGA; antisense UCUCUCUUGAUGAAGGUGGAA; listed as RNA, chemistry not given here)
- GFP fluorescence of siRNA-treated infected brain organoids [2]: no or very low GFP fluorescence
- growth kinetics of siRNA-treated infected brain organoids [2]: substantially higher growth kinetics
- susceptibility of brain organoids to TB40/E [2]: completely abrogated

Molecule: ITGA5-specific siRNA: siRNA specific for integrin α5 (Dharmacon), sense SEQ ID NO: 7, antisense SEQ ID NO: 8 (sense GGGAACCUCACUUACGGCU; antisense AGCCGUAAGUGAGGUUCCCUU; listed as RNA, chemistry not given here) [reference compound]
- GFP fluorescence of siRNA-treated infected brain organoids [2]: similar
- growth kinetics of siRNA-treated infected brain organoids [2]: similar

B1: 1B2: Mouse monoclonal anti-CMV PC neutralizing antibody that targets the UL128/130/131A subunits of the PC (antibody, V domains shown)
VH: EVQLVESGGVLVKPGGSLKLSCAASGFTFSDYYMYWVRQTPEKRLEWVATISDDGNYTNYPDSVKGRFTISRDNAKNNLYLQMSSLKSEDTAMYYCARGWLLPVFAYWGQGTLVTVSA
VL: DIVLTQSPATLSVTPGDSVSLSCRASQSIGNNLHWYQQKSHESPRLLIKYTSQSISGIPSRFSGSGSGTDFTLNINSVETEDFGVYFCQQSNRWPWTFGGGTKLEIK
- GFP fluorescence intensity of infected brain organoids [3]: substantially reduced GFP fluorescence intensity
- brain organoid growth kinetics (relative organoid size) [3]: markedly increased growth kinetics in a dose-dependent manner
- brain organoid size [3]: substantially larger
- prevention of HCMV infection of human brain organoids [3]: can potently prevent
- infection of brain organoids by TR and its effect on brain organoid growth [4]: could be prevented
- thickness of the TBR2+SVZ and the CTIP2+CP layers [5]: much thicker
- neural network activity (MEA profile) [6]: largely prevented neural network impairment
- prevention of HCMV infection of fibroblasts [7]: unable to prevent
- inhibition of HCMV infection of epithelial cells [8]: exceptionally high potency

B2: 62-11: Mouse monoclonal gH-specific HCMV neutralizing antibody raised against the envelope PC by vaccination (antibody, V domains shown)
VH: QVQLQQPGAELVRPGASVKLSCKASGYTFTSYWMNWVKQRPGQGLEWIGMIDPSDSETHYNQMFKDKATLTVDKSSSTAYMQLSSLTSEDSAVYYCSNGYSSFAYWGQGTLVTVSV
VL: DVQMTQTTSSLSASLGDRVTISCSASQGISNYLNWYQQKPDGTVKLLIYDTSSLHSGVPSRFSGSGSGTDYSLTISNLEPEDIATYYCQQYSKLPYTFGGGTKLEIK
- GFP fluorescence intensity of infected brain organoids [3]: substantially reduced GFP fluorescence intensity
- brain organoid growth kinetics (relative organoid size) [3]: markedly increased growth kinetics in a dose-dependent manner
- brain organoid size [3]: substantially larger
- prevention of HCMV infection of human brain organoids [3]: can potently prevent
- prevention of HCMV infection of fibroblasts [7]: can potently interfere
- inhibition of HCMV infection of epithelial cells [8]: can potently interfere
